Reference: patent US11591580B2, “K85 mutation-containing plant EPSPS mutant, and encoding gene and application thereof” (GEVOTO LLC, priority 2017, dated 2023)
Residue numbers refer to the chain shown, from its start.

Assays:
[1] = system: double knockout E. coli; experiment: growth of E. coli transformed by genes encoding soybean EPSPS (wild type and mutants) in culture media containing different glyphosate concentrations (Example 7, FIG. 3); format: cell-based
[2] = system: transgenic rice seedlings; experiment: glyphosate resistance of the EPSPS mutant in transgenic rice plants sprayed with glyphosate (Example 8, Table 1); format: in vivo, rice (Nipponbare); conditions: for glyphosate resistance of transformed rice seedlings (in words): glyphosate sprayed at the 1× dosage; for glyphosate resistance / survival of transformed rice seedlings (in words): 2× glyphosate dosage
From the text: A method for detecting the glyphosate resistance of the G1 soybean EPSPS mutant (SEQ ID NO: 20), G2 soybean EPSPS mutant (SEQ ID NO: 22) and G3 soybean EPSPS mutant (SEQ ID NO: 24) provided in Example 7, the R1 rice EPSPS mutant (SEQ ID NO: 4) provided in Example 5, and the Z1 maize EPSPS mutant (SEQ ID NO: 12) provided in Example 6 in the transgenic rice is as follows:
The plasmids (containing the EPSPS mutant gene) of the monoclonal resistant bacteria of pADV5-EPSPS in Examples 1-7 were extracted by a conventional method, followed by double enzyme digestion by Pac1 and BstEII, the small fragments were collected, and then the small fragments were ligated, using T4 DNA ligase, to the pGVP1 vectors that had undergone the same double enzyme digestion, to obtain a pGVP1-EPSPS vector having a structure as shown in FIG. 8.
In the present example, the glyphosate resistance of the EPSPS mutant in transgenic rice plants were verified. An experiment method is as follows:
The transgenic rice seedlings transplanted were uniformly arranged in a same experiment area (preventing leaves from overlapping). The areas occupied by the experiment groups and the control group were calculated, and according to the areas, glyphosate was sprayed at a 1× dosage of 1060 g/hectare (0.106 g/m^2). 2× dosage was 2120 g/hectare, 5× dosage was 5300 g/hectare, and 20× dosage was 21200 g/hectare.
Commercially available Roundup® 41% ammonium glyphosate was used. Roundup® ammonium glyphosate with corresponding volumes was taken according to the above sprayed concentrations, then diluted with 20 times of volume of water, and then uniformly sprayed on the plants in the experiment groups and the control group. After leaf surfaces were dry, the plants were moved into greenhouse or outdoor to cultivate.
After the glyphosate was sprayed at the 1× dosage, growth states of the plants in each group were observed and recorded on a 10th day, and glyphosate was sprayed to the survived plants at the 2× dosage. The growth states of the plants in each group were observed and recorded 10 days later, and glyphosate was sprayed to the survived plants at the 5× dosage. The growth states of the plants in each group were observed and recorded 10 days later, and glyphosate was sprayed to the survived plants at the 20× dosage. The growth states of the plants in each group were observed and recorded 10 days later, and results are shown in Table 1, wherein corresponding numbers of plants denoted by −, +, ++ and +++ are listed, and “%++&+++” is percentage of plant having medium and high glyphosate resistance to the total number of plants observed.

[3] = culture media containing 1 mM glyphosate
[4] = 1X dosage (1060 g/hectare glyphosate), recorded on 10th day
[5] = 2X dosage (2120 g/hectare) sprayed to plants surviving 1X, recorded 10 days later
[6] = 5X dosage (5300 g/hectare) sprayed to plants surviving 2X, recorded 10 days later
[7] = 20X dosage (21200 g/hectare) sprayed to plants surviving 5X, recorded 10 days later
[8] = culture media containing 20 mM glyphosate

B1: G0: wild-type soybean EPSPS represented by SEQ ID NO: 18; control group of Example 7 (protein)
chain: MAAAEKPSTAPEIVLEPIKDISGTITLPGSKSLSNRILLLAALSEGTTVVDNLLYSEDIHYMLGALRTLGLRVEDDQTTKQAIVEGCGGLFPTIKESKDEINLFLGNAGTAMRPLTAAVVAAGGNASYVLDGVPRMRERPIGDLVAGLKQLGADVDCFLGTNCPPVRVNGKGGLPGGKVKLSGSVSSQYLTALLMAAPLALGDVEIEIVDKLISVPYVEMTLKLMERFGVSVEHSGDWDKFLVHGGQKYKSPGNAFVEGDASSASYFLAGAAVTGGTITVNGCGTSSLQGDVKFAEVLEKMGAKVTWSENSVTVTGPPQDSSGQKVLQGIDVNMNKMPDVAMTLAVVALFANGQTTIRDVASWRVKETERMIAICTELRKLGATVEEGPDYCVITPPEKLNVTAIDTYDDHRMAMAFSLAACGDVPVTIKDPGCTRKTFPDYFEVLERFTRH
modifications: Glycine max
- growth of transformed E. coli [1, 3]: substantially could not grow
- % ++&+++ (percentage of plant having medium and high glyphosate resistance to the total number of plants observed) [2, 4]: 0.0%
- number of plants with resistance + (low glyphosate resistance) [2, 4]: 0
- number of plants with resistance ++ (medium glyphosate resistance) [2, 4]: 0
- number of plants with resistance +++ (high glyphosate resistance) [2, 4]: 0
- number of plants with resistance − (no glyphosate resistance) [2, 4]: 36
- % ++&+++ (percentage of plant having medium and high glyphosate resistance to the total number of plants observed) [2, 5]: 0.0%
- number of plants with resistance + (low glyphosate resistance) [2, 5]: 0
- number of plants with resistance ++ (medium glyphosate resistance) [2, 5]: 0
- number of plants with resistance +++ (high glyphosate resistance) [2, 5]: 0
- number of plants with resistance − (no glyphosate resistance) [2, 5]: 36
- % ++&+++ (percentage of plant having medium and high glyphosate resistance to the total number of plants observed) [2, 6]: 0.0%
- number of plants with resistance + (low glyphosate resistance) [2, 6]: 0
- number of plants with resistance ++ (medium glyphosate resistance) [2, 6]: 0
- number of plants with resistance +++ (high glyphosate resistance) [2, 6]: 0
- number of plants with resistance − (no glyphosate resistance) [2, 6]: 36
- % ++&+++ (percentage of plant having medium and high glyphosate resistance to the total number of plants observed) [2, 7]: 0.0%
- number of plants with resistance + (low glyphosate resistance) [2, 7]: 0
- number of plants with resistance ++ (medium glyphosate resistance) [2, 7]: 0
- number of plants with resistance +++ (high glyphosate resistance) [2, 7]: 0
- number of plants with resistance − (no glyphosate resistance) [2, 7]: 36
- glyphosate resistance of transformed rice seedlings (in words) [2]: had no resistance and died

B2: G1: single-mutation soybean EPSPS mutant, SEQ ID NO: 20, only mutation K98(85)T (protein)
chain: B1 chain with K98T
modifications: Glycine max EPSPS mutant with mutation K98(85)T
- growth of transformed E. coli [1, 3]: obviously superior to the control group (G0)
- % ++&+++ (percentage of plant having medium and high glyphosate resistance to the total number of plants observed) [2, 4]: 5.4%
- number of plants with resistance + (low glyphosate resistance) [2, 4]: 6
- number of plants with resistance ++ (medium glyphosate resistance) [2, 4]: 2
- number of plants with resistance +++ (high glyphosate resistance) [2, 4]: 0
- number of plants with resistance − (no glyphosate resistance) [2, 4]: 29
- % ++&+++ (percentage of plant having medium and high glyphosate resistance to the total number of plants observed) [2, 5]: 0.0%
- number of plants with resistance + (low glyphosate resistance) [2, 5]: 4
- number of plants with resistance ++ (medium glyphosate resistance) [2, 5]: 0
- number of plants with resistance +++ (high glyphosate resistance) [2, 5]: 0
- number of plants with resistance − (no glyphosate resistance) [2, 5]: 33
- glyphosate resistance / survival of transformed rice seedlings (in words) [2]: some of the rice seedlings transformed by G1 still survived
- % ++&+++ (percentage of plant having medium and high glyphosate resistance to the total number of plants observed) [2, 6]: 0.0%
- number of plants with resistance + (low glyphosate resistance) [2, 6]: 0
- number of plants with resistance ++ (medium glyphosate resistance) [2, 6]: 0
- number of plants with resistance +++ (high glyphosate resistance) [2, 6]: 0
- number of plants with resistance − (no glyphosate resistance) [2, 6]: 37
- % ++&+++ (percentage of plant having medium and high glyphosate resistance to the total number of plants observed) [2, 7]: 0.0%
- number of plants with resistance + (low glyphosate resistance) [2, 7]: 0
- number of plants with resistance ++ (medium glyphosate resistance) [2, 7]: 0
- number of plants with resistance +++ (high glyphosate resistance) [2, 7]: 0
- number of plants with resistance − (no glyphosate resistance) [2, 7]: 37
- glyphosate resistance of transformed rice seedlings (in words) [2]: obviously superior to that of G0

B3: G2: single-mutation soybean EPSPS mutant, SEQ ID NO: 22, only mutation P114(101)S but no K98(85)T (protein)
chain: B1 chain with P114S
modifications: Glycine max EPSPS mutant with mutation P114(101)S
- growth of transformed E. coli [1, 8]: could grow
- % ++&+++ (percentage of plant having medium and high glyphosate resistance to the total number of plants observed) [2, 4]: 47.1%
- number of plants with resistance + (low glyphosate resistance) [2, 4]: 6
- number of plants with resistance ++ (medium glyphosate resistance) [2, 4]: 5
- number of plants with resistance +++ (high glyphosate resistance) [2, 4]: 3
- number of plants with resistance − (no glyphosate resistance) [2, 4]: 3
- % ++&+++ (percentage of plant having medium and high glyphosate resistance to the total number of plants observed) [2, 5]: 0.0%
- number of plants with resistance + (low glyphosate resistance) [2, 5]: 0
- number of plants with resistance ++ (medium glyphosate resistance) [2, 5]: 0
- number of plants with resistance +++ (high glyphosate resistance) [2, 5]: 0
- number of plants with resistance − (no glyphosate resistance) [2, 5]: 17
- glyphosate resistance / survival of transformed rice seedlings (in words) [2]: all rice seedlings containing the soybean EPSPS mutant G2 died
- % ++&+++ (percentage of plant having medium and high glyphosate resistance to the total number of plants observed) [2, 6]: 0.0%
- number of plants with resistance + (low glyphosate resistance) [2, 6]: 0
- number of plants with resistance ++ (medium glyphosate resistance) [2, 6]: 0
- number of plants with resistance +++ (high glyphosate resistance) [2, 6]: 0
- number of plants with resistance − (no glyphosate resistance) [2, 6]: 17
- % ++&+++ (percentage of plant having medium and high glyphosate resistance to the total number of plants observed) [2, 7]: 0.0%
- number of plants with resistance + (low glyphosate resistance) [2, 7]: 0
- number of plants with resistance ++ (medium glyphosate resistance) [2, 7]: 0
- number of plants with resistance +++ (high glyphosate resistance) [2, 7]: 0
- number of plants with resistance − (no glyphosate resistance) [2, 7]: 17
- glyphosate resistance of transformed rice seedlings (in words) [2]: certain resistance to glyphosate

B4: G3: soybean EPSPS mutant, SEQ ID NO: 24, two mutations K98(85)T and P114(101)S (protein)
chain: B1 chain with K98T, P114S
modifications: Glycine max EPSPS mutant with mutations K98(85)T and P114(101)S
- growth of transformed E. coli [1, 8]: superior to that of Experiment Group 2 (G2)
- % ++&+++ (percentage of plant having medium and high glyphosate resistance to the total number of plants observed) [2, 4]: 45.2%
- number of plants with resistance + (low glyphosate resistance) [2, 4]: 1
- number of plants with resistance ++ (medium glyphosate resistance) [2, 4]: 9
- number of plants with resistance +++ (high glyphosate resistance) [2, 4]: 5
- number of plants with resistance − (no glyphosate resistance) [2, 4]: 16
- % ++&+++ (percentage of plant having medium and high glyphosate resistance to the total number of plants observed) [2, 5]: 19.4%
- number of plants with resistance + (low glyphosate resistance) [2, 5]: 5
- number of plants with resistance ++ (medium glyphosate resistance) [2, 5]: 6
- number of plants with resistance +++ (high glyphosate resistance) [2, 5]: 0
- number of plants with resistance − (no glyphosate resistance) [2, 5]: 20
- % ++&+++ (percentage of plant having medium and high glyphosate resistance to the total number of plants observed) [2, 6]: 0.0%
- number of plants with resistance + (low glyphosate resistance) [2, 6]: 10
- number of plants with resistance ++ (medium glyphosate resistance) [2, 6]: 0
- number of plants with resistance +++ (high glyphosate resistance) [2, 6]: 0
- number of plants with resistance − (no glyphosate resistance) [2, 6]: 21
- % ++&+++ (percentage of plant having medium and high glyphosate resistance to the total number of plants observed) [2, 7]: 0.0%
- number of plants with resistance + (low glyphosate resistance) [2, 7]: 3
- number of plants with resistance ++ (medium glyphosate resistance) [2, 7]: 0
- number of plants with resistance +++ (high glyphosate resistance) [2, 7]: 0
- number of plants with resistance − (no glyphosate resistance) [2, 7]: 28
- glyphosate resistance of transformed rice seedlings (in words) [2]: certain resistance to glyphosate
